Source: patent US20150139997A1 (Genmab, published 2015)

T1: FasL (Tebu-bio) (UniProt P48023 134-281, limits assumed)
T1 construct: Bought reagent coated at 100 ng/mL
T1 sequence (looked up): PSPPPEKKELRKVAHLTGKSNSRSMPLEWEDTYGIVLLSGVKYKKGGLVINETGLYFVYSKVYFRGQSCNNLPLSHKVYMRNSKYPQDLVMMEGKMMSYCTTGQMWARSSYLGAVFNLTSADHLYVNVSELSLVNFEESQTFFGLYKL

T2: DcR2 (R&D Systems) (UniProt Q9UBN6 56-211, limits assumed)
T2 construct: Bought reagent coated at 50 ng/mL; also called TRAIL-R4
T2 sequence (looked up): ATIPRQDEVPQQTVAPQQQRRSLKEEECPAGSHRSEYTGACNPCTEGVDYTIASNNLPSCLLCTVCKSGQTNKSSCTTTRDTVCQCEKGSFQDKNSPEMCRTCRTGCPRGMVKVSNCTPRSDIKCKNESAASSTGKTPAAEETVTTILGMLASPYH

T3: Fas (R&D Systems) (UniProt P25445 26-173, limits assumed)
T3 construct: Bought reagent coated at 50 ng/mL
T3 sequence (looked up): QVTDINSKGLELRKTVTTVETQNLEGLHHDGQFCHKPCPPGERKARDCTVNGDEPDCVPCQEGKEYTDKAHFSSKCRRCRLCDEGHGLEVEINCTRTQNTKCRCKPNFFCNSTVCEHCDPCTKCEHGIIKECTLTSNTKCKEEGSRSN

T4: DcR1 (R&D Systems) (UniProt O14798 26-221, limits assumed)
T4 construct: Bought reagent coated at 50 ng/mL; also called TRAIL-R3
T4 sequence (looked up): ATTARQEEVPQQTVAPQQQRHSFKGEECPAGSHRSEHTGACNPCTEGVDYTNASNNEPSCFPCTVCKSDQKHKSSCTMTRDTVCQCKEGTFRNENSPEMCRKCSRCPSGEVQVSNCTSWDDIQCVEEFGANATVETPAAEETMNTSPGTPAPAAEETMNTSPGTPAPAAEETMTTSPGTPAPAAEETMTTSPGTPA


Legend:
[1] = target: T5, recombinant TRAIL (R&D Systems) (UniProt P50591 114-281); test: ELISA, coated antigen 100 ng/mL
T5 construct: Bought reagent, used coated in the ELISA and soluble at 100 ng/mL on H4 cells; also called Apo2L; TRAIL ligand

FasL (Tebu-bio) = target: T1, FasL (Tebu-bio); test: ELISA, coated antigen 100 ng/mL
DcR2 (R&D Systems) = target: T2, DcR2 (R&D Systems); test: ELISA, coated antigen 50 ng/mL
Fas (R&D Systems) = target: T3, Fas (R&D Systems); test: ELISA, coated antigen 50 ng/mL
DR4 (R&D Systems) = target: T6, DR4 (R&D Systems) (UniProt O00220 24-239, limits assumed); test: ELISA, coated antigen 50 ng/mL
T6 construct: Bought reagent coated at 50 ng/mL; also called TRAIL-R1

DcR1 (R&D Systems) = target: T4, DcR1 (R&D Systems); test: ELISA, coated antigen 50 ng/mL

| binding result [1] | binding result (FasL (Tebu-bio)) | binding result (DcR2 (R&D Systems)) | binding result (Fas (R&D Systems)) | binding result (DR4 (R&D Systems)) | binding result (DcR1 (R&D Systems)) | Binder |
| --- | --- | --- | --- | --- | --- | --- |
| no binding (tested: 1 µg/mL) | no binding (tested: 1 µg/mL) | no binding (tested: 1 µg/mL) | no binding (tested: 1 µg/mL) | no binding (tested: 1 µg/mL) | no binding (tested: 1 µg/mL) | mDR5-05 (antibody, V domains shown, mouse IgG1 is implied) VH: EVQLQQSGAELVKPGASVKLFCTASGFNIKDTHIHWVKQRPEQGLEWIGRIDPANGNTEYDPKFQGKATIRVDTSSDTAYLQLSSLTSEDTAVHYCARWGTNVYFAYWGQGTSVTVSS VL: DIQLTQSPAIMSASPGEKVTISCSASSSVSYMYWYQQKPGSSPKPWIYRTSNLASGVPGRFSGSGSGTSYSLTISSMEAEDAATYYCQQYHSYPPTFGGGTKLEIK |
| no binding (tested: 1 µg/mL) | no binding (tested: 1 µg/mL) | no binding (tested: 1 µg/mL) | no binding (tested: 1 µg/mL) | no binding (tested: 1 µg/mL) | no binding (tested: 1 µg/mL) | mDR5-01 (antibody, V domains shown) VH: EVQLQQSGAEFVKPGASVKLSCTASGFNIKDTFIHWVKQRPEQGLDWIGRIDPANGNTKYDPKFQGKATETTDTSSNTAYLQLSSLTSEDTAVYYCVRGLYTYYFDYWGQGTSVTVSS VL: DIVLTQSPATLSVTPGDSVSLSCRASQSISNNLHWYQQKSHESPRLLIKFASQSISGIPSRFSGSGSGADFTLIINSVETEDFGMYFCQQGNSWPYTFGGGTKLEIK |
